Substitutions are numbered along the chain they refer to. Each block holds one binder with its values, some of them ahead of it.
Experiments:
Assay in all cases: SPR, Fab over captured MICA*008.mIgG2a Ala variant; KD relative to wild type
G275A = target: T1, G275A
T1 construct: % monomer 98.9; also called MICA*008.mIgG2a G275A
T1 chain: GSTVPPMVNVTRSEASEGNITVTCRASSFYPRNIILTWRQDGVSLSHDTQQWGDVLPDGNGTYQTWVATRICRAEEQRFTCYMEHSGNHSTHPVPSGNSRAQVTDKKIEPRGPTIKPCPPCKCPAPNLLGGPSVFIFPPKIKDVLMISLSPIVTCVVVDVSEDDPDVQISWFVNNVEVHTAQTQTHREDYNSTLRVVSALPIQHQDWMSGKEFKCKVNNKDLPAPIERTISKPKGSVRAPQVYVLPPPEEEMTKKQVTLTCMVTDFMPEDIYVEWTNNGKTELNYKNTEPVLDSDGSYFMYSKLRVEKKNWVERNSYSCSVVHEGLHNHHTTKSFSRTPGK

Q278A = target: T2, Q278A
T2 construct: % monomer 92.32; also called MICA*008.mIgG2a Q278A
T2 chain: T1 chain with A74G, Q77A

Y283A = target: T3, Y283A
T3 construct: % monomer 92.7; also called MICA*008.mIgG2a Y283A
T3 chain: T1 chain with A74G, Y82A

V244A = target: T4, V244A
T4 construct: % monomer 97.6; also called MICA*008.mIgG2a V244A
T4 chain: T1 chain with V43A, A74G

E285A = target: T5, E285A
T5 construct: % monomer 83.78; also called MICA*008.mIgG2a E285A
T5 chain: T1 chain with A74G, E84A

R240A = target: T6, R240A
T6 construct: % monomer 93.8; also called MICA*008.mIgG2a R240A
T6 chain: T1 chain with R39A, A74G

B1: 2E5.2.3 Fab (Fab, V domains shown)
VH: QGQMQQSGAELVKPGASVKLSCKTSGFTFSDNYISWLKQKPGQSLEWIAWIYAGTGGTSYNQKFTAKAQLTVDTSSSTAYMQFSSLTTEDSAIYYCARHDYYGTSGAWFAYWGQGTLVTVSA
VL: DVLMTQTPLSLPVSLGDQASLSCRSSQNIVHINGNTYLEWYLQKPGQSPKLLIYKVSNRFSGVPDRFSGSGSGTDFTLKISRVEAEDLGVYYCFQGSHVPWTFGGGTKVEIK
fold-decrease in affinity (G275A): 1
fold-decrease in affinity (Q278A): 1
fold-decrease in affinity (Y283A): 0.2
fold-decrease in affinity (V244A): 1
fold-decrease in affinity (E285A): 0.9
fold-decrease in affinity (R240A): 1

B4: 1D5 Fab (Fab, V domains shown)
VH: EIQLQQSGPELVKPGASVKVSCKASGYAFTSQNIYWVKQSHGKSLEWIGYIEPYNVVPMYNPKFKGKATLTVDKSSSSAYIHLNSLTSEDSAIYYCARSGSSNFDYWGQGTTLTVSS
VL: EIILTQSPTTMAASPGEKITITCSASSSISSHYLHWYQQKSGFSPKLLIYRTSNLASGVPARFSGSGSGTSYSLTIGTMEAEDVATYYCQQGSSLPLTFGAGTKVEIK
notes: Expressed in E. coli as chimera of murine variable and human constant domains; not shown: human IgG1 CH1 constant domain; human kappa CL constant domain
fold-decrease in affinity (Q278A): 0.7

Second part, the binder after the results:

fold-decrease in affinity (G275A): 4.6
fold-decrease in affinity (Q278A): 0.5
fold-decrease in affinity (Y283A): 1.7
fold-decrease in affinity (E285A): 3.9
fold-decrease in affinity (R240A): 4.5
B2: 6F8.7 Fab (Fab, V domains shown)
VH: DVQLQGSGPGLVKPSQSLSLTCSVTGYSITNDYYWNWIRQFPGNKLEWMGFISFGGSNNYNPSLKNRISITRDTSKNQFFLKLSSVTTEDTATYYCARYDGRGAWFAYWAQGTLVTVSA
VL: DIQMTQSPASLSASVGETVTITCRASGNIHNYLAWYQQKQGKSPQLLVYDAITLADGVPSRFSGSGSGTQYSLKINSLQPEDFGNYYCQHFWSFPLTFGAGTKVEIK

fold-decrease in affinity (Q278A): 4.9
fold-decrease in affinity (E285A): 7.9
B3: 7D4.6 Fab (Fab, V domains shown)
VH: DVQLQESGPGLVKPSQSLSLTCTVTGYSITSDYAWNWIRQFPRNKLEWMGYINYSGTTNYNPSLKSRISITRDTSKNQFFLQLISVTTEDTATYYCSYYRYDGAWFPYWGQGTLVTVSA
VL: B2 VL with D50N, T53M, G64A, N85S

— patent US20200055939A1 (Genentech, published 2020)
